# Source: FireProtDB (doi:10.1016/0167-4838(91)90474-e)
# Values joined by “and” are separate entries in the source; they are usually repeats but may differ in a detail not shown here. Equal entries are not always repeated.
# B1: Ovomucoid wild type, P01005 (protein)
# chain: MAMAGVFVLFSFVLCGFLPDAAFGAEVDCSRFPNATDKEGKDVLVCNKDLRPICGTDGVTYTNDCLLCAYSIEFGTNISKEHDGECKETVPMNCSSYANTTSEDGKVMVLCNRAFNPVCGTDGVTYDNECLLCAHKVEQGASVDKRHDGGCRKELAAVSVDCSEYPKPDCTAEDRPLCGSDNKTYGNKCNFCNAVVESNGTLTLSHFGKC
# Conditions: Gallus gallus, Absorbance, Sodium phosphate 0.06 M, reversible: yes, whole UniProt chain shown; for unfolding enthalpy (van 't Hoff): Thermal; for denaturant m value / denaturant midpoint (higher = more stable) / unfolding free energy: 25 °C, Urea
protein,measurement,setting,value
B1,unfolding enthalpy (van 't Hoff),pH 5,34 kcal/mol and 30 kcal/mol
same,unfolding enthalpy (van 't Hoff),"pH 5, transition: 3",30 kcal/mol and 44 kcal/mol
same,denaturant m value,pH 7,1.35 kcal/mol/M and 1.15 kcal/mol/M
same,denaturant midpoint (higher = more stable),pH 7,2.7 M and 2.8 M
same,unfolding free energy,pH 7,4.65 kcal/mol and 3.39 kcal/mol
same,denaturant m value,"pH 7, transition: 3",1.01 kcal/mol/M and 1.03 kcal/mol/M and 1.02 kcal/mol/M
same,denaturant midpoint (higher = more stable),"pH 7, transition: 3",7.3 M and 2.8 M and 6.9 M
same,unfolding free energy,"pH 7, transition: 3",7.66 kcal/mol and 3.39 kcal/mol and 7.42 kcal/mol
same,unfolding enthalpy (van 't Hoff),pH 7,58 kcal/mol and 37 kcal/mol
same,unfolding enthalpy (van 't Hoff),"pH 7, transition: 3",82 kcal/mol and 54 kcal/mol and 46 kcal/mol
